# Assay: soluble on expression in E. coli; label from the status in PepcDB or PDB records
row,Sequence,soluble on expression in E. coli
1,MEVYMKKLINDKNNIVEEVVQGMIKAFPNKVSRVENEPIIIRKNKKVNKVALISGGGSGHEPAHAGYVGYGMLDAAVCGEIFTSPGADKVYSAIKAVDAGKGVLLIIKNYSGDVMNFEMAGEMAQAEGITVKQVVVDDDIAVENSTYTVGRRGIAGTIFVHKILGAAAEKGYDLDKLVELGNKVVKNLKTMGMSLKPCTVFTTGKESFEIADDEVEIGLGIHGEPGTHREKMTTANEFTKKLFEKIYAESNVQNGDRFAVLVNGLGETTLIELFIINNHLQDLLKDKRIEVAKTLVGNYMTSLDMGGFSISLLKLDKEMEELLNAEEDTIAFLEHHHHHH,soluble
2,MHHHHHHGKPIPNPLLGLDSTENLYFQGIDPFTMNNRNHDVLSRMISEKAALHGLLNCLIKEFAIPEGYLRYEWPDEMKGIPPGAYFDGADWKGIPMMIGLPDQLQLFVMVDRRDTFGSQHYLSDVYLRQAQGDWQCPDFEPLVARLLAACEHIAGRKNPELYEQILQSQRLVSAIVSHNGRQRADAPLQHYLQSEQGLWFGHPSHPAPKARLWPAHLGQEQWAPEFQARAALHQFEVPVDGLHIGANGLTPQQVLDGFADQQPASPGHAIICMHPVQAQLFMQDARVQQLLRDNVIRDLGQSGRVASPTASIRTWFIDDHDYFIKGSLNVRITNCVRKNAWYELESTVLIDRLFRQLLDQHADTLGGLVAAAEPGVVSWSPAAAGELDSHWFREQTGGILRENFCRRTGAERSIMAGTLFARGVDLQPMIQTFLRTHYGEALDDNALLYWFDDYQTRLLRPVLSLFFNHGVVMEPHLQNSVLVHQQGRPQQVLLRDFEGVKLTDDLGIRYIDDDIHPRVRQSLLYSREQGWNRIMYCLFINHLSETILALSQGRPQLAPLMWRRVQQQLRAIQGELKQPSPELDALIAGHPVACKTNLKVRLAAEADRQASYVRLPSPWGHAVQHGSEVQHDERRHGDVRHEEARHGEVQHG,soluble
3,MDLVDKRDVLIGDFRPSLGFYGGVRVGVYLDTTEPKHAKIKGFAMETLKRSSKVWLQELRSNLNIFWGTIESEISKNGAASYIFPLQRCIFSFLCASLAGVDASVSPDIAENGWKTINTWLALQVIPTAKLGVVPQPLEEILLHTWPYPSLLIAGNYKKLYNFIDENAGDCLRLGQEEFGLTRDEAIQNLLFVLGFNAYGGFSVFLPSLIGRITGDNSGLQERIRTEVRRVCGSGSDLNFKTVNEMELVKSVVYETLRFSPPVPLQFARARKDFQISSHDAVFEVKKGELLCGYQPLVMRDANVFDEPEEFKPDRYVGETGSELLNYLYWSNGPQTGTPSASNKQCAAKDIVTLTASLLVADLFLRYDTITGDSGSIKAVVKAK,soluble
4,GPGSMRLLSFSNVPLFLALFPPLPLLSCASVWHTRRHSFSEIFFVGSFIAAPFRCIVSPRVALYRARLRFLAPAACTRALPFAYTGQQGERQIKMITATADAGSAAKAAAAPPARMFDCLDAASKERVTMLLSHYQVLLPVEQASFMQELERYNQEQQTTALERNKAGEVWIRYTNPRLQAVQARDPAYVQRSISHTAASRGSKGDAAPEEATAPCSLEDLVHIRGMFGEPEGVPIRVGKMSLYEKLQQNMRNRRSTACGSLANTTVSSIPTAADAGHGAARVSVPFGPFAEAPAKPAEGKREVGDNASPKTSAQSESGERAVALVCADTFPSHTSSVRPSAPYRNNAYQAVRLAMSSPGYTATTQPTSVAELQTPLDGVKPVLNTTAFPITEEELRDWFDELDVHGRGVLSVEEFQRYMQSLERDLGVPTEYATLELDGAQLAKDGWLSFEAFSYLVLRFVRA,not soluble
5,GMQKPHLLITSAGRRAKLVEYFVKEFKTGRVSTADCSPLASALYMADQHYIVPKIDEVEYIDHLLTLCQDEGVTALLTLIDPELGLLAQATERFQAIGVTVIVSPYAACELCFDKYTMYEYCLRQGIAHARTYATMASFEEALAAGEVQLPVFVKPRNGSASIEVRRVETVEEVEQLFSKNTDLIVQELLVGQELGVDAYVDLISGKVTSIFIKEKLTMRAGETDKSRSVLRDDVFELVEHVLDGSGLVGPLDFDLFDVAGTLYLSEINPRFGGGYPHAYECGVNFPAQLYRNLMHEINVPQIGQYLDDIYMLKHDTVTLISAAELQKIKR,soluble
6,MQDEVVLLDFWPSPFGMRVRIALAEKGIKYEYKEEDLRNKSPLLLQMNPVHKKIPVLIHNGKPICESLIAVQYIEEVWNDRNPLLPSDPYQRAQTRFWADYVDKKIYDLGRKIWTSKGEEKEAAKKEFIEALKLLEEQLGDKTYFGGDNLGFVDIALVPFYTWFKAYETFGTLNIESECPKFIAWAKRCLQKESVAKSLPDQQKVYEFIMDLRKKLGIE,soluble
7,MGSDKIHHHHHHMNITPKSIIGDIKKKNGNINRVIFTGCGASMADLYPGYYFISHESKHLLSSIMQANEFNYDTPKDVNENTIVITASLGGSTPESVEATKHARELGAHVVTLSHVPNSAIINEAEYSLVHGFEEDYAHKTEKMTLALQLAIEIVNQFEGYDYYADAQKAFEGLFNLINQEANMVAPAAEEFVTKYKDENTIYVLGSGASADVAYSTASFLFMEMQWISSPTIHSGEFFHGPFELALKDTPYLLFMSDGNTRHLDARAMAFLQRFDTKLTVIDAKDHGLASIASSNVIDYFNPMLITGVMRVYAEKLAEARQHPLTQRRYMWKLENY,not soluble
8,MGSSHHHHHHNFYDSDPHISELTPKSFDKAIHNTNYTSLVEFYAPWCGHCKKLSSTFRKAAKRLDGVVQVAAVNCDLNKNKALCAKYDVNGFPTLMVFRPPKIDLSKPIDNAKKSFSAHANEVYSGARTLAPIVDFSLSRIRSYVKKFVRIDTLGSLLRKSPKLSVVLFSKQDKISPVYKSIALDWLGKFDFYSISNKKLKQLTDMNPTYEKTPEIFKYLQKVIPEQRQSDKSKLVVFDADKDKFWEYEGNSINKNDISKFLRDTFSITPNEGPFSRRSEYIAYLKTGKKPIKKNHSS,soluble
9,MIIHFTLNGAPQELTVNPGENVQKLLFNMGMHSVRNSDDGFGFAGSDAIIFNGNIVNASLLIAAQLEKADIRTAESLGKWNELSLVQQAMVDVGVVQSGYNDPAAALIITDLLDRIAAPTREEIDDALSGLFSRDAGWQQYYQVIELAVARKNNPQATIDIAPTFRDDLEVIGKHYPKTDAAKMVQAKPCYVEDRVTADACVIKMLRSPHAHALITHLDVSKAEALPGVVHVITHLNCPDIYYTPGGQSAPEPSPLDRRMFGKKMRHVGDRVAAVVAESEEIALEALKLIDVEYEVLKPVMSIDEAMAEDAPVVHDEPVVYVAGAPDTLEDDNSHAAQRGEHMIINFPIGSRPRKNIAASIHGHIGDMDKGFADADVIIERTYNSTQAQQCPTETHICFTRMDGDRLVIHASTQVPWHLRRQVARLVGMKQHKVHVIKERVGGGFGSKQDILLEEVCAWATCVTGRPVLFRYTREEEFIANTSRHVAKVTVKLGAKKDGRLTAVKMDFRANTGPYGNHSLTVPCNGPALSLPLYPCDNVDFQVTTYYSNICPNGAYQGYGAPKGNFAITMALAELAEQLQIDQLEIIERNRVHEGQELKILGAIGEGKAPTSVPSAASCALEEILRQGREMIQWSSPKPQNGDWHIGRGVAIIMQKSGIPDIDQANCMIKLESDGTFIVHSGGADIGTGLDTVVTKLAAEVLHCPPQDVHVISGDTDHALFDKGAYASSGTCFSGNAARLAAENLREKILFHGAQMLGEPVADVQLATPGVVRGKKGEVSFGDIAHKGETGTGFGSLVGTGSYITPDFAFPYGANFAEVAVNTRTGEIRLDKFYALLDCGTPVNPELALGQIYGATLRAIGHSMSEEIIYDAEGHPLTRDLRSYGAPKIGDIPRDFRAVLVPSDDKVGPFGAKSISEIGVNGAAPAIATAIHDACGIWLREWHFTPEKILTALEKI,soluble
10,MSLKRKVLFTAVMVLAGLQLLSGCGKTEASANDTVVLRYAYASNSQPVIDSMKKFGELVEEKTDGKVQIEYFPDGQLGGETELIELTQTGAIDFAKVSGSALESFSKDYSVFAIPYIFDNEKHFFKVMDNQALMQPVYDSTKKLGFVGLTYYDSGQRSFYMSKGPVTSPDDLKGKKIRVMQSETAIKMVELLGGSPVPMGSSEVYTSLQSNLINGAENNEFVLYTAGHGGVAKYYSYDEHTRVPDIVIMNEGTKERLTAKQEQAIEEAAKESTAFEKTVFKEAVEEEKKKAQAEYGVVFNQVDSEPFQKLVQPLHESFKNSSEHGELYQAIRQLADEGGSHHHHHH,soluble
11,INYEKVGLKVGLEIHQQLNTKRKLFCHCPTILRDDEPDGEIVRVLRPSLSEMGEVDRAALIEARKGKKFIYQFYNDTTCLVELDEEPPHPPSEEALRIALEVALLMNMNVVDVAYTMRKIVIDGSNTSGFQRTIFLARDGYIETSEGKVGITSLCLEEDAARKIEDRGDAVVYNLDRLGIPLVEISTAPDIKTPKMAKEAARRIGEILRATGKVKRGLGTIRQDINISIKDGARIEVKGVQDLDLIEKVVENEVIRQLNLL,not soluble
12,MMVEVRFFGPIKEENFFIKANDLKELRAILQEKEGLKEWLGVCAIALNDHLIDNLNTPLKDGDVISLLPPVCGG,not soluble
13,MTLLRGTVRTKTSCQLVSAIGTQNCTVWEGYEVSEITPGNSNTSYITWKRSVPNTNLSQPITSCPASTVKFPTCKVGWKLFPRYNTYWCLTLGINRRERDGYLLQFDQSFSYVACRWDGSEFIDGRISGLESNEERAYATDRAYQIMKQNMRETLFVFPSNVRLGWGVWVDGVKDVAGQVKYSDTTLNLKLGYKWDIGQPNWVSRKQACVMLMVPVNQSSRSNGSLRTAEYLRSI,not soluble
14,MSNVIFSQKLYDTAQMVVDGCMGDADPACQTACPMHTDVKQYVRLAGEGNYQEALDLIRGKLFLPQTLGRICAHPCEAACRRNTEYNQPISVAGIKRFVAEKMDKQSNWDLTVANDSGKKIAIVGAGPAGAQAAIELRRSGHQVTIYEKLNVYGGMMRVGIPEYRLPRDVIDFEYGYLDMLGIETKFGIEIGKDISFNELRLSHDAIILAHGAHVGSIIPLPGHKAQGVFSAVEYLKEVSETRDFPRAGKRIMVIGGGDVAMDCARSSWRIGVDEVHQCSLEEMAKLPASQIEIDESLEEGVLFNAGWGPISIEETDGKVTGIVLKKVISIFDENGNFSPSYSDETRTIAVDTVIFATGQVVADITDGALEQTRGGRYVVDKDTLASSVDGVYVAGDACGGNIVVEAMALGHKAALSIERQFAKRPLTENRDFEKEYNYPSRLDIPLPKGTTDTPRLHGQLRDAEERKQDFKQVDLGFSEEQIKQEASRCLQCTCKLCMNECVMMNDFGDCPKTLFSDFINNKTMDPLLAYSCNACDQCTIVCPKDYPMKEMFLSARVDFVNANGGNSPIPGHKAINMHQKLGFSKFFTMAKRTVASKLEHHHHHH,not soluble
15,DEPILSFSPKTYSFRQDGRIKEVSVFTYHKKYNPDKHYIYVVRILREGQIEPSFVFRTFDEFQELHNKLSIIFPLWKLPGFPNRMVLGRTHIKDVAAKRKIELNSYLQSLMNASTDVAECDLVCTFFHPLLRDEKAEGIA,soluble
16,MKITTWNVNSLNVRLPQVQNLLADNPPDILVLQELKLDQDKFPAAALQMMGWHCVWSGQKTYNGVAIVSRSVPQDVHFGLPALPDDPQRRVIAATVSGVRVINVYCVNGEALDSPKFKYKEQWFAALTEFVRDEMTRHGKLVLLGDFNIAPADADCYDPEKWHEKIHCSSVERQWFQNLLDLGLTDSLRQVHPEGAFYTWFDYRGAMFQRKLGLRIDHILVSPAMAAALKDVRVDLETRALERPSDHAPVTAEFDW,soluble
17,MEFELEQHTPIIHFQARDAGATLRASEVKPKLDKFILTQIGKRFVKKTASTTEKNFIERGIEYFQNKDEEARRVYEEEKKKGNKGAKLELCLIPGQEGALNYKLSFKLSPDAKVQYFLPMSSNPKEIDKLKSLAQEKLGVQEVEMLPLTSYFANEDKAKSEPNIKHGDTPDQIKNKKRIFEENWQKVQLATFVNTPVEGVIRFQNAGLREEVNNLITNFFMLHNFGARQSKGFGSFIISLRDGKEEEDYFDTGCACYGYSFYIPAKTLEEALRKINYFYRSLRSGFNEYRGKNEIFYAKSGMHFYATKHNFEWDKKSIKGMLFDRDKDLEGKMKKEELFAFRDLLGLSSNERWQSYKTTITKECRNKKGEKFDRIKSPIQFKPICYSKYDYIVFFDLFPEKSGIPQLKGGKVVVKSSRHKGAVLELKIQEDIDLYNVFNEIFSELNFESQVGEYDSLTDAKEIFETMKDIYEQLNKNCHE,not soluble
